# According to FireProtDB (doi:10.1021/bi0015717):
# Where “and” joins values, the source holds several entries; their conditions need not be identical. Equal values may be shown once.
# B1: Lysozyme C, P61626 (parent)
# chain: MKALIVLGLVLLSVTVQGKVFERCELARTLKRLGMDGYRGISLANWMCLAKWESGYNTRATNYNAGDRSTDYGIFQINSRYWCNDGKTPGAVNACHLSCSALLQDNIADAVACAKRVVRDPQGIRAWVAWRNRCQNRDVRQYVQGCGV
# Variants of: B1
# Details: Homo sapiens; pH 2.65; Thermal; DSC; glycine-HCl 0.05 M; reversible: yes; structure 1LZ1; whole UniProt chain shown
Variant,Tm,unfolding enthalpy (calorimetric)
MKALIVLGLVLLSVTVQGKGFERCELARTLKRLGMDGYRGISLANWMCLAKWESGYNTRATNYNAGDRSTDYGIFQINSRYWCNDGKTPGAVNACHLSCSALLQDNIADAVACAKRVVRDPQGIRAWVAWRNRCQNRDVRQYVQGCGV,56.6 °C,95.6 kcal/mol

# Same assay, conditions: Homo sapiens; pH 2.7; 64.9 °C; Thermal; DSC; glycine-HCl 0.05 M; reversible: yes; structure 1LZ1; whole UniProt chain shown
row,Variant,ddG of mutation (higher = less stable)
1,MKALIVLGLVLLSVTVQGKGFERCELARTLKRLGMDGYRGISLANWMCLAKWESGYNTRATNYNAGDRSTDYGIFQINSRYWCNDGKTPGAVNACHLSCSALLQDNIADAVACAKRVVRDPQGIRAWVAWRNRCQNRDVRQYVQGCGV,2.29 kcal/mol
2,MKALIVLGLVLLSVTVQGKVFERCELARTLKRLGMDGYRGISLANWMCLAKWESGYNTRATNYNAGDRSTDYGIFQINSRYWCNDGKTPGAVNACHLSCSALLQDNIADAVACAKRVVRDPQGIRAWGAWRNRCQNRDVRQYVQGCGV,-0.48 kcal/mol
3,MKALIVLGLVLLSVTVQGKVFERCELARTLKRLGMDGYRGISLANWMCLAKWESGYNTRATNYNAGDRSTDYGIFQINSRYWCNDGKTPGAVNACHLSCSALLQDNIADAVACAKRVVRDPQGIRAWIAWRNRCQNRDVRQYVQGCGV,-0.86 kcal/mol

# Same assay, conditions: Homo sapiens; pH 2.7; Thermal; DSC; glycine-HCl 0.05 M; reversible: yes; structure 1LZ1; whole UniProt chain shown
Variant,"change of melting temperature, mutant - wild type (higher = more stable)",heat capacity change of unfolding,unfolding enthalpy (calorimetric),Tm
MKALIVLGLVLLSVTVQGKGFERCELARTLKRLGMDGYRGISLANWMCLAKWESGYNTRATNYNAGDRSTDYGIFQINSRYWCNDGKTPGAVNACHLSCSALLQDNIADAVACAKRVVRDPQGIRAWVAWRNRCQNRDVRQYVQGCGV,-7.5 °C,1.31 kcal/mol/K,107 kcal/mol,–
MKALIVLGLVLLSVTVQGKVFERCELARTLKRLGMDGYRGISLANWMCLAKWESGYNTRATNYNAGDRSTDYGIFQINSRYWCNDGKTPGAVNACHLSCSALLQDNIADAVACAKRVVRDPQGIRAWGAWRNRCQNRDVRQYVQGCGV,1.6 °C,1.82 kcal/mol/K,99.9 kcal/mol,66.5 °C and 64.9 °C
MKALIVLGLVLLSVTVQGKVFERCELARTLKRLGMDGYRGISLANWMCLAKWESGYNTRATNYNAGDRSTDYGIFQINSRYWCNDGKTPGAVNACHLSCSALLQDNIADAVACAKRVVRDPQGIRAWIAWRNRCQNRDVRQYVQGCGV,2.7 °C,1.65 kcal/mol/K,111 kcal/mol and 107 kcal/mol,67.3 °C and 67.6 °C and 64.9 °C

# Same assay, conditions: Homo sapiens; pH 2.83; Thermal; DSC; glycine-HCl 0.05 M; reversible: yes; structure 1LZ1; whole UniProt chain shown
Variant,Tm,unfolding enthalpy (calorimetric)
MKALIVLGLVLLSVTVQGKGFERCELARTLKRLGMDGYRGISLANWMCLAKWESGYNTRATNYNAGDRSTDYGIFQINSRYWCNDGKTPGAVNACHLSCSALLQDNIADAVACAKRVVRDPQGIRAWVAWRNRCQNRDVRQYVQGCGV,59.5 °C,99.7 kcal/mol

# Same assay, conditions: Homo sapiens; pH 3.08; Thermal; DSC; glycine-HCl 0.05 M; reversible: yes; structure 1LZ1; whole UniProt chain shown
Variant,Tm,unfolding enthalpy (calorimetric)
MKALIVLGLVLLSVTVQGKGFERCELARTLKRLGMDGYRGISLANWMCLAKWESGYNTRATNYNAGDRSTDYGIFQINSRYWCNDGKTPGAVNACHLSCSALLQDNIADAVACAKRVVRDPQGIRAWVAWRNRCQNRDVRQYVQGCGV,63.8 °C,105 kcal/mol

# Same assay, conditions: Homo sapiens; pH 3.19; Thermal; DSC; glycine-HCl 0.05 M; reversible: yes; structure 1LZ1; whole UniProt chain shown
Variant,Tm,unfolding enthalpy (calorimetric)
MKALIVLGLVLLSVTVQGKGFERCELARTLKRLGMDGYRGISLANWMCLAKWESGYNTRATNYNAGDRSTDYGIFQINSRYWCNDGKTPGAVNACHLSCSALLQDNIADAVACAKRVVRDPQGIRAWVAWRNRCQNRDVRQYVQGCGV,65.7 °C,108 kcal/mol

# Same assay, conditions: Homo sapiens; pH 3.4; Thermal; DSC; glycine-HCl 0.05 M; reversible: yes; structure 1LZ1; whole UniProt chain shown
Variant,Tm,unfolding enthalpy (calorimetric)
MKALIVLGLVLLSVTVQGKGFERCELARTLKRLGMDGYRGISLANWMCLAKWESGYNTRATNYNAGDRSTDYGIFQINSRYWCNDGKTPGAVNACHLSCSALLQDNIADAVACAKRVVRDPQGIRAWVAWRNRCQNRDVRQYVQGCGV,69 °C,112 kcal/mol

# Same assay, conditions: Homo sapiens; pH 2.6; Thermal; DSC; glycine-HCl 0.05 M; reversible: yes; structure 1LZ1; whole UniProt chain shown
Variant,Tm,unfolding enthalpy (calorimetric)
MKALIVLGLVLLSVTVQGKVFERCELARTLKRLGMDGYRGISLANWMCLAKWESGYNTRATNYNAGDRSTDYGIFQINSRYWCNDGKTPGAVNACHLSCSALLQDNIADAVACAKRVVRDPQGIRAWGAWRNRCQNRDVRQYVQGCGV,64.6 °C,99.9 kcal/mol

# Same assay, conditions: Homo sapiens; pH 2.94; Thermal; DSC; glycine-HCl 0.05 M; reversible: yes; structure 1LZ1; whole UniProt chain shown
Variant,Tm,unfolding enthalpy (calorimetric)
MKALIVLGLVLLSVTVQGKVFERCELARTLKRLGMDGYRGISLANWMCLAKWESGYNTRATNYNAGDRSTDYGIFQINSRYWCNDGKTPGAVNACHLSCSALLQDNIADAVACAKRVVRDPQGIRAWGAWRNRCQNRDVRQYVQGCGV,70.6 °C,110 kcal/mol

# Same assay, conditions: Homo sapiens; pH 3.11; Thermal; DSC; glycine-HCl 0.05 M; reversible: yes; structure 1LZ1; whole UniProt chain shown
Variant,Tm,unfolding enthalpy (calorimetric)
MKALIVLGLVLLSVTVQGKVFERCELARTLKRLGMDGYRGISLANWMCLAKWESGYNTRATNYNAGDRSTDYGIFQINSRYWCNDGKTPGAVNACHLSCSALLQDNIADAVACAKRVVRDPQGIRAWGAWRNRCQNRDVRQYVQGCGV,73.4 °C,115 kcal/mol

# Same assay, conditions: Homo sapiens; pH 3.3; Thermal; DSC; glycine-HCl 0.05 M; reversible: yes; structure 1LZ1; whole UniProt chain shown
Variant,Tm,unfolding enthalpy (calorimetric)
MKALIVLGLVLLSVTVQGKVFERCELARTLKRLGMDGYRGISLANWMCLAKWESGYNTRATNYNAGDRSTDYGIFQINSRYWCNDGKTPGAVNACHLSCSALLQDNIADAVACAKRVVRDPQGIRAWGAWRNRCQNRDVRQYVQGCGV,76.6 °C,122 kcal/mol

# Same assay, conditions: Homo sapiens; pH 2.53; Thermal; DSC; glycine-HCl 0.05 M; reversible: yes; structure 1LZ1; whole UniProt chain shown
Variant,Tm,unfolding enthalpy (calorimetric)
MKALIVLGLVLLSVTVQGKVFERCELARTLKRLGMDGYRGISLANWMCLAKWESGYNTRATNYNAGDRSTDYGIFQINSRYWCNDGKTPGAVNACHLSCSALLQDNIADAVACAKRVVRDPQGIRAWIAWRNRCQNRDVRQYVQGCGV,64.9 °C,107 kcal/mol

# Same assay, conditions: Homo sapiens; pH 2.9; Thermal; DSC; glycine-HCl 0.05 M; reversible: yes; structure 1LZ1; whole UniProt chain shown
Variant,Tm,unfolding enthalpy (calorimetric)
MKALIVLGLVLLSVTVQGKVFERCELARTLKRLGMDGYRGISLANWMCLAKWESGYNTRATNYNAGDRSTDYGIFQINSRYWCNDGKTPGAVNACHLSCSALLQDNIADAVACAKRVVRDPQGIRAWIAWRNRCQNRDVRQYVQGCGV,70.9 °C,117 kcal/mol

# Same assay, conditions: Homo sapiens; pH 3.13; Thermal; DSC; glycine-HCl 0.05 M; reversible: yes; structure 1LZ1; whole UniProt chain shown
Variant,Tm,unfolding enthalpy (calorimetric)
MKALIVLGLVLLSVTVQGKVFERCELARTLKRLGMDGYRGISLANWMCLAKWESGYNTRATNYNAGDRSTDYGIFQINSRYWCNDGKTPGAVNACHLSCSALLQDNIADAVACAKRVVRDPQGIRAWIAWRNRCQNRDVRQYVQGCGV,74.9 °C,123 kcal/mol

# Same assay, conditions: Homo sapiens; pH 3.23; Thermal; DSC; glycine-HCl 0.05 M; reversible: yes; structure 1LZ1; whole UniProt chain shown
Variant,Tm,unfolding enthalpy (calorimetric)
MKALIVLGLVLLSVTVQGKVFERCELARTLKRLGMDGYRGISLANWMCLAKWESGYNTRATNYNAGDRSTDYGIFQINSRYWCNDGKTPGAVNACHLSCSALLQDNIADAVACAKRVVRDPQGIRAWIAWRNRCQNRDVRQYVQGCGV,76.8 °C,127 kcal/mol
